# Test results reported in the supplement of paper PMC10567573.
# B1: FCHSD1 (parent)
# chain: LEAAEVILEHAHRGEQTTSQVSWE
# Variants of: B1
# Test: protein stability index of a GFP-peptide fusion (GPS, HEK-293T) (PSI 1-6); higher = more stable
# Details: c terminus: a fixed tail appended
# 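Also: lentivirally expressed fusions sorted by FACS into six bins by GFP to DsRed ratio, PSI derived from sequencing read proportions per bin multiplied by bin number.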
row,Variant,protein stability index
1,S22T,3.8
2,S22P,5.17
3,S22N,4.47
4,S22R,3.74
5,S22V,5.24
6,S22M,4.54
7,S22Q,4.98
8,S22L,3.79
9,S22Y,4.63
10,E24I,2.01
11,E24C,3.88
12,E24F,2.65
13,E24G,2.57
14,E24R,3.47
15,E24V,3.07
16,E24S,4.46
17,E24K,4.64
18,E24Y,3.99
19,E24Q,3.95
20,E24A,3.2
21,E24L,2.95
22,E24N,3.92

row,Variant,protein stability index
1,E24P,4.3
2,E24H,4
3,E24W,2.66
4,E24M,2.72
5,W23P,5.29
6,W23K,4.41
7,W23M,4.23
8,W23Q,5.54
9,W23R,4.58
10,W23F,4.64
11,W23C,3.4
12,W23L,5.12
13,W23E,5.79
14,W23N,3.89
15,W23S,5.24
16,W23H,5.61
17,W23A,5.32
18,W23I,4.2
19,W23T,4.9
20,W23D,5.55
21,W23Y,4.71
